The results in this text go back to the Human Domainome abundance scans (Beltran et al. 2025).

The labels stand for the following.
B1: Tyrosine-protein kinase BTK, residues 215 to 273; numbered along this chain, Q06187 (parent)
chain: ELKKVVALYDYMPMNANDLQLRKGDEYFILEESNLPWWRARDKNGQEGYIPSNYVTEAE

± gives the uncertainty stated by the source.

This data set covers variants of B1. In words: abundance fitness (aPCA) (normalised: wild type 0, dead -1); higher = more abundant; growth selection in yeast, the domain comes from the species named. As to conditions: Homo sapiens.
On to A16P, for which the abundance fitness was -0.093 ± 0.043.
Consider A16F, for which the abundance fitness is -0.18 ± 0.053.
The value for A16E was 0.013 ± 0.042.
For the variant A16Q, the abundance fitness is 0.016 ± 0.04.
For the variant A16I, the abundance fitness is -0.229 ± 0.058.
For I29S, the abundance fitness is -0.544 ± 0.045.
As to I29F, the abundance fitness is -0.799 ± 0.11.
The result for I29L reads -0.008 ± 0.03.
On to I29H, for which the abundance fitness was -0.99 ± 0.2.
On to I29R, for which the abundance fitness was -0.436 ± 0.037.
For I29Y, the abundance fitness was -1.02 ± 0.13.
Consider Y9W, for which the abundance fitness is -0.053 ± 0.044.
With Y9K, the abundance fitness came out at 0.073 ± 0.045.
For the variant Y9G, the abundance fitness was -0.018 ± 0.031.
Y9S: the abundance fitness was determined as 0.053 ± 0.031.
Take Y9V: the abundance fitness amounted to 0.031 ± 0.028.
Regarding K4T, the abundance fitness was -0.036 ± 0.046.
Turning to K4G, the abundance fitness is -0.357 ± 0.035.
For the variant K4R, the abundance fitness was -0.072 ± 0.041.
The value for K4L was -0.089 ± 0.041.
Consider K4I, for which the abundance fitness was -0.033 ± 0.098.
As to K4W, the abundance fitness was -0.334 ± 0.047.
K4V: the abundance fitness was -0.079 ± 0.044.
For K4D, the abundance fitness was -0.287 ± 0.17.
As to K4C, the abundance fitness was -0.225 ± 0.072.
As for K4Q, the abundance fitness was -0.088 ± 0.059.
With Y27C, the abundance fitness is -0.299 ± 0.065.
As to Y27A, the abundance fitness was -0.339 ± 0.049.
With Y27W, the abundance fitness is -0.96 ± 0.08.
Turning to Y27M, the abundance fitness is -0.362 ± 0.051.
Y27K: the abundance fitness was -0.771 ± 0.062.
Regarding Y27R, the abundance fitness is -0.772 ± 0.05.
The value for Y27V was -0.022 ± 0.04.
For the variant Y27N, the abundance fitness is -0.537 ± 0.1.
In the case of R39L, the abundance fitness is -0.062 ± 0.038.
Regarding R39A, the abundance fitness was -0.179 ± 0.043.
Turning to R39H, the abundance fitness is -0.116 ± 0.11.
As to R39P, the abundance fitness was -0.187 ± 0.073.
As to R39S, the abundance fitness was -0.089 ± 0.039.
Consider R39E, for which the abundance fitness was -0.199 ± 0.046.
For M12H, the abundance fitness turned out to be 0.006 ± 0.091.
The result for M12C reads 0.032 ± 0.052.
Turning to M12V, the abundance fitness was -0.022 ± 0.039.
Regarding M12E, the abundance fitness was 0.017 ± 0.049.
Take M12Q: the abundance fitness is -0.009 ± 0.055.
Turning to P13R, the abundance fitness was -0.153 ± 0.036.
The result for P13A reads -0.082 ± 0.046; that for P13Q, -0.296 ± 0.076; that for W38F, -0.031 ± 0.043.
The result for W38C reads -0.027 ± 0.048; that for W38Y, 0.044 ± 0.063.
Turning to W38L, the abundance fitness is -0.005 ± 0.029.
The result for W38T reads -0.009 ± 0.037; that for W38G, -0.22 ± 0.043.
Turning to E47D, the abundance fitness is -0.011 ± 0.08.
In the case of E47V, the abundance fitness was -0.05 ± 0.041.
With E47Q, the abundance fitness is -0.113 ± 0.059.
Take A7L: the abundance fitness is -1 ± 0.047.
With A7Q, the abundance fitness was -0.828 ± 0.059.
As to A7F, the abundance fitness was -0.599 ± 0.1.
Take A7N: the abundance fitness is -1.11 ± 0.15.
As for A7K, the abundance fitness was -0.955 ± 0.06.
For the variant A7T, the abundance fitness was -0.801 ± 0.056.
The value for A7E was -0.813 ± 0.054; that for E59W was -0.081 ± 0.064.
The result for E59D reads -0.128 ± 0.086; that for E59P, -0.025 ± 0.1.
Turning to N15A, the abundance fitness was -0.077 ± 0.034.
On to N15L, for which the abundance fitness amounted to 0.004 ± 0.03.
As for N15I, the abundance fitness was -0.079 ± 0.054.
In the case of N15E, the abundance fitness was -0.011 ± 0.037.
As to N15M, the abundance fitness is -0.03 ± 0.037.
The result for N15P reads -0.442 ± 0.044; that for N15H, -0.048 ± 0.069.
Regarding N15G, the abundance fitness came to 0.065 ± 0.031.
The result for V55A reads -0.32 ± 0.05; that for V55G, -0.827 ± 0.056; that for V55H, -0.852 ± 0.11.
On to V55W, for which the abundance fitness is -0.784 ± 0.069.
As to V55N, the abundance fitness was -0.808 ± 0.21.
On to V55F, for which the abundance fitness is -0.318 ± 0.061.
The value for V55C was -0.083 ± 0.048; that for L19F was -0.391 ± 0.067; that for L19M was -0.105 ± 0.041.
With L19D, the abundance fitness was -0.936 ± 0.086.
The result for L19R reads -0.792 ± 0.042; that for L19H, -0.703 ± 0.093.
V6H: the abundance fitness is -0.154 ± 0.033.
The result for V6T reads -0.017 ± 0.029; that for V6C, -0.103 ± 0.03.
In the case of V6I, the abundance fitness was -0.028 ± 0.027.
Turning to V6G, the abundance fitness is -0.636 ± 0.03.
For the variant L2N, the abundance fitness is 0.012 ± 0.088.
As for L2M, the abundance fitness was -0.055 ± 0.056.
As for L2G, the abundance fitness was -0.018 ± 0.039.
With L2V, the abundance fitness is -0.116 ± 0.036.
With N44V, the abundance fitness is -0.054 ± 0.049.
On to N44Q, for which the abundance fitness is -0.016 ± 0.051.
The result for N44H reads -0.063 ± 0.072; that for N44I, 0.036 ± 0.099; that for N44T, 0.029 ± 0.051.
For the variant N44F, the abundance fitness was -0.026 ± 0.051.
As to N44G, the abundance fitness turned out to be 0.017 ± 0.046.
Consider N44A, for which the abundance fitness is -0.041 ± 0.055.
As to I50V, the abundance fitness was -0.014 ± 0.038.
The result for I50G reads -0.876 ± 0.07; that for I50R, -1.01 ± 0.091.
The value for I50E was -0.95 ± 0.08.
In the case of I50F, the abundance fitness is -0.121 ± 0.082.
As to S33K, the abundance fitness is 0.009 ± 0.079.
On to S33M, for which the abundance fitness was -0.02 ± 0.05.
As for S33C, the abundance fitness was -0.039 ± 0.057.
The value for S33V was -0.054 ± 0.039.
Consider S33H, for which the abundance fitness was -0.087 ± 0.068.
For the variant R41T, the abundance fitness is -0.097 ± 0.04.
Regarding R41N, the abundance fitness was -0.674 ± 0.12.
For R41C, the abundance fitness was -0.027 ± 0.078.
Turning to R41V, the abundance fitness was -0.132 ± 0.046.
The result for R41G reads -0.317 ± 0.042.
Turning to R41L, the abundance fitness is -0.072 ± 0.036.
The value for R41P was -0.976 ± 0.12; that for R41S was -0.108 ± 0.039; that for R41E was -0.305 ± 0.069.
For G48C, the abundance fitness is -0.793 ± 0.096.
Consider G48K, for which the abundance fitness was -0.8 ± 0.069.
For the variant G48H, the abundance fitness is -0.856 ± 0.13.
Turning to G48F, the abundance fitness was -0.725 ± 0.066.
The result for G48E reads -0.895 ± 0.12.
Take G48N: the abundance fitness was -0.97 ± 0.17.
Take G48R: the abundance fitness is -0.827 ± 0.052.
As to K3V, the abundance fitness is -0.107 ± 0.041.
With K3H, the abundance fitness is -0.224 ± 0.078.
As to K3S, the abundance fitness was -0.135 ± 0.044.
In the case of K3I, the abundance fitness was -0.257 ± 0.054.
The result for K3W reads -0.253 ± 0.05.
With K3F, the abundance fitness was -0.038 ± 0.065.
K3D: the abundance fitness is -0.22 ± 0.08.
With K3L, the abundance fitness is -0.102 ± 0.034.
With Y11F, the abundance fitness came out at 0.005 ± 0.05.
Consider Y11C, for which the abundance fitness is -0.202 ± 0.05.
As to Y11D, the abundance fitness is -0.72 ± 0.14.
Take Y11E: the abundance fitness is -0.562 ± 0.1.
Regarding Y11P, the abundance fitness is -0.704 ± 0.063.
Y11S: the abundance fitness is -0.161 ± 0.033.
For the variant Y11R, the abundance fitness was found to be 0.032 ± 0.032.
In the case of M14G, the abundance fitness worked out at 0.02 ± 0.035.
As to M14K, the abundance fitness is -0.007 ± 0.059.
For M14S, the abundance fitness is -0.001 ± 0.031.
In the case of Y54N, the abundance fitness was -0.266 ± 0.065.
Take Y54V: the abundance fitness was -0.203 ± 0.048.
For the variant Y54T, the abundance fitness was -0.235 ± 0.059.
Turning to Y54Q, the abundance fitness is -0.153 ± 0.066.
With Y54M, the abundance fitness stood at 0.035 ± 0.066.
As to Y54F, the abundance fitness was 0.101 ± 0.066.
Turning to Y54I, the abundance fitness was -0.228 ± 0.075.
Regarding W37C, the abundance fitness is 0.029 ± 0.05.
Regarding W37I, the abundance fitness was -0.097 ± 0.071.
Regarding W37E, the abundance fitness was determined as 0.011 ± 0.054.
With W37H, the abundance fitness is 0.014 ± 0.062.
With W37F, the abundance fitness is -0.011 ± 0.051.
Take W37L: the abundance fitness was -0.014 ± 0.032.
For W37S, the abundance fitness is -0.017 ± 0.036.
W37G: the abundance fitness is -0.134 ± 0.036.
Regarding E31F, the abundance fitness is -0.005 ± 0.047.
As for E31P, the abundance fitness was -0.162 ± 0.049.
Take E31W: the abundance fitness was -0.105 ± 0.036.
The value for E31S was 0.05 ± 0.031.
